Assay results published in FireProtDB.

Conditions: Escherichia coli (strain K12), Thermal, CD, whole UniProt chain shown; for unfolding free energy: reversible: yes
[1] = pH 0.53, glycine-HCl 10 mM, reversible: yes (95%)
[2] = pH 0.83, glycine-HCl 10 mM, reversible: yes (96%)
[3] = pH 1.02, glycine-HCl 10 mM, reversible: yes (98%)
[4] = pH 1.07, glycine-HCl 10 mM, reversible: yes (88%)
[5] = pH 1.08, glycine-HCl 10 mM, reversible: yes (102%)
[6] = pH 1.14, glycine-HCl 10 mM, reversible: yes (101%)
[7] = pH 1.24, glycine-HCl 10 mM, reversible: yes (103%)
[8] = pH 1.28, glycine-HCl 10 mM, reversible: yes (100%)
[9] = pH 1.3, glycine-HCl 10 mM, reversible: yes (101%)
[10] = pH 1.31, glycine-HCl 10 mM, reversible: yes (94%)
[11] = pH 1.4, glycine-HCl 10 mM, reversible: yes (91%)
[12] = pH 1.41, glycine-HCl 10 mM, reversible: yes (98%)
[13] = pH 1.45, glycine-HCl 10 mM, reversible: yes (101%)
[14] = pH 1.52, glycine-HCl 10 mM, reversible: yes (107%)
[15] = pH 1.55, glycine-HCl 10 mM, reversible: yes (93%)
[16] = pH 1.55, glycine-HCl 10 mM, reversible: yes (104%)
[17] = pH 1.62, glycine-HCl 10 mM, reversible: yes (100%)
[18] = pH 1.63, glycine-HCl 10 mM, reversible: yes (108%)
[19] = pH 1.67, glycine-HCl 10 mM, reversible: yes (108%)
[20] = pH 1.71, glycine-HCl 10 mM, reversible: yes (98%)
[21] = pH 1.75, glycine-HCl 10 mM, reversible: yes (90%)
[22] = pH 1.76, glycine-HCl 10 mM, reversible: yes (101%)
[23] = pH 1.79, glycine-HCl 10 mM, reversible: yes (104%)
[24] = pH 1.84, glycine-HCl 10 mM, reversible: yes (110%)
[25] = pH 1.94, glycine-HCl 10 mM, reversible: yes (88%)
[26] = pH 2, glycine-HCl 10 mM, reversible: yes (98%)
[27] = pH 2.03, glycine-HCl 10 mM, reversible: yes (109%)
[28] = pH 2.04, glycine-HCl 10 mM, reversible: yes (95%)
[29] = pH 2.15, glycine-HCl 10 mM, reversible: yes (92%)
[30] = pH 2.18, glycine-HCl 10 mM, reversible: yes (90%)
[31] = pH 2.22, glycine-HCl 10 mM, reversible: yes (95%)
[32] = pH 2.39, glycine-HCl 10 mM, reversible: yes (95%)
[33] = pH 2.45, glycine-HCl 10 mM, reversible: yes (96%)
[34] = pH 2.53, glycine-HCl 10 mM, reversible: yes (92%)
[35] = pH 2.65, glycine-HCl 10 mM, reversible: yes (91%)
[36] = pH 2.79, glycine-HCl 10 mM, reversible: yes (92%)
[37] = pH 2.86, glycine-HCl 10 mM, reversible: yes (97%)
[38] = pH 2.95, glycine-HCl 10 mM, reversible: yes (92%)
[39] = pH 3.06, glycine-HCl 10 mM, reversible: yes (90%)
[40] = pH 3.1, glycine-HCl 10 mM, reversible: yes (85%)
[41] = pH 3.11, glycine-HCl 10 mM, reversible: yes (91%)
[42] = pH 3.18, glycine-HCl 10 mM, reversible: yes (93%)
[43] = pH 3.25, glycine-HCl 10 mM, reversible: yes (94%)
[44] = pH 3.26, glycine-HCl 10 mM, reversible: yes (95%)
[45] = pH 3.34, glycine-HCl 10 mM, reversible: yes (94%)
[46] = pH 3.38, glycine-HCl 10 mM, reversible: yes (96%)
[47] = pH 3.64, glycine-HCl 10 mM, reversible: yes (93%)
[48] = pH 3.98, glycine-HCl 10 mM, reversible: yes (93%)
[49] = pH 4, glycine-HCl 10 mM, reversible: yes (94%)

B1: Ribonuclease HI wild type, P0A7Y4 (protein)
chain: MLKQVEIFTDGSCLGNPGPGGYGAILRYRGREKTFSAGYTRTTNNRMELMAAIVALEALKEHCEVILSTDSQYVRQGITQWIHNWKKRGWKTADKKPVKNVDLWQRLDAALGQHQIKWEWVKGHAGHPENERCDELARAAAMNPTLEDTGYQVEV
- Tm [1]: 23.6 °C
- unfolding enthalpy (van 't Hoff) [1]: 41.2 kcal/mol
- Tm [2]: 23.9 °C
- unfolding enthalpy (van 't Hoff) [2]: 37.3 kcal/mol
- Tm [3]: 20.4 °C
- unfolding enthalpy (van 't Hoff) [3]: 34.7 kcal/mol
- Tm [4]: 24.9 °C
- unfolding enthalpy (van 't Hoff) [4]: 35.3 kcal/mol
- Tm [5]: 22.3 °C
- unfolding enthalpy (van 't Hoff) [5]: 49.6 kcal/mol
- Tm [6]: 21.5 °C
- unfolding enthalpy (van 't Hoff) [6]: 51.5 kcal/mol
- Tm [7]: 21.5 °C
- unfolding enthalpy (van 't Hoff) [7]: 48.7 kcal/mol
- Tm [8]: 23 °C
- unfolding enthalpy (van 't Hoff) [8]: 52.7 kcal/mol
- Tm [9]: 21.2 °C
- unfolding enthalpy (van 't Hoff) [9]: 56.9 kcal/mol
- Tm [10]: 20.9 °C
- unfolding enthalpy (van 't Hoff) [10]: 45.5 kcal/mol
- Tm [11]: 20.3 °C
- unfolding enthalpy (van 't Hoff) [11]: 52.9 kcal/mol
- Tm [12]: 21 °C
- unfolding enthalpy (van 't Hoff) [12]: 46.1 kcal/mol
- Tm [13]: 21.8 °C
- unfolding enthalpy (van 't Hoff) [13]: 52 kcal/mol
- Tm [14]: 21.5 °C
- unfolding enthalpy (van 't Hoff) [14]: 55.3 kcal/mol
- Tm [15]: 21.7 °C
- unfolding enthalpy (van 't Hoff) [15]: 53.4 kcal/mol
- Tm [16]: 20.8 °C
- unfolding enthalpy (van 't Hoff) [16]: 54.4 kcal/mol
- Tm [17]: 20.6 °C
- unfolding enthalpy (van 't Hoff) [17]: 56.4 kcal/mol
- Tm [18]: 21.9 °C
- unfolding enthalpy (van 't Hoff) [18]: 55.7 kcal/mol
- Tm [19]: 23.6 °C
- unfolding enthalpy (van 't Hoff) [19]: 70.6 kcal/mol
- Tm [20]: 21.1 °C
- unfolding enthalpy (van 't Hoff) [20]: 58.3 kcal/mol
- Tm [21]: 21.7 °C
- unfolding enthalpy (van 't Hoff) [21]: 72.5 kcal/mol
- Tm [22]: 25.2 °C
- unfolding enthalpy (van 't Hoff) [22]: 78.5 kcal/mol
- Tm [23]: 23.9 °C
- unfolding enthalpy (van 't Hoff) [23]: 60.7 kcal/mol
- Tm [24]: 23.9 °C
- unfolding enthalpy (van 't Hoff) [24]: 64.8 kcal/mol
- Tm [25]: 24.8 °C
- unfolding enthalpy (van 't Hoff) [25]: 74.6 kcal/mol
- unfolding free energy (pH 2, 10 °C, glycine-HCl 10 mM): 2 kcal/mol
- Tm [26]: 26.5 °C
- unfolding enthalpy (van 't Hoff) [26]: 61.3 kcal/mol
- Tm [27]: 28.7 °C
- unfolding enthalpy (van 't Hoff) [27]: 67.9 kcal/mol
- Tm [28]: 28.5 °C
- unfolding enthalpy (van 't Hoff) [28]: 70.6 kcal/mol
- Tm [29]: 29.9 °C
- unfolding enthalpy (van 't Hoff) [29]: 67.1 kcal/mol
- Tm [30]: 32.5 °C
- unfolding enthalpy (van 't Hoff) [30]: 63.5 kcal/mol
- Tm [31]: 33 °C
- unfolding enthalpy (van 't Hoff) [31]: 65.8 kcal/mol
- Tm [32]: 35.5 °C
- unfolding enthalpy (van 't Hoff) [32]: 66.7 kcal/mol
- Tm [33]: 35.4 °C
- unfolding enthalpy (van 't Hoff) [33]: 71.8 kcal/mol
- Tm [34]: 39.8 °C
- unfolding enthalpy (van 't Hoff) [34]: 76 kcal/mol
- Tm [35]: 42.3 °C
- unfolding enthalpy (van 't Hoff) [35]: 81.3 kcal/mol
- Tm [36]: 46.1 °C
- unfolding enthalpy (van 't Hoff) [36]: 89 kcal/mol
- Tm [37]: 46.4 °C
- unfolding enthalpy (van 't Hoff) [37]: 80.5 kcal/mol
- Tm [38]: 50.1 °C
- unfolding enthalpy (van 't Hoff) [38]: 91.6 kcal/mol
- unfolding free energy (pH 3, 10 °C, glycine-HCl 10 mM): 8.14 kcal/mol
- unfolding free energy (pH 3, 25 °C, glycine-HCl 10 mM): 6.08 kcal/mol
- Tm [39]: 50.7 °C
- unfolding enthalpy (van 't Hoff) [39]: 102 kcal/mol
- Tm [40]: 53.9 °C
- unfolding enthalpy (van 't Hoff) [40]: 106 kcal/mol
- Tm [41]: 52.2 °C
- unfolding enthalpy (van 't Hoff) [41]: 101 kcal/mol
- Tm [42]: 54 °C
- unfolding enthalpy (van 't Hoff) [42]: 102 kcal/mol
- Tm [43]: 55.1 °C
- unfolding enthalpy (van 't Hoff) [43]: 109 kcal/mol
- Tm [44]: 58.9 °C
- unfolding enthalpy (van 't Hoff) [44]: 96.6 kcal/mol
- Tm [45]: 57.6 °C
- unfolding enthalpy (van 't Hoff) [45]: 100 kcal/mol
- Tm [46]: 57.4 °C
- unfolding enthalpy (van 't Hoff) [46]: 101 kcal/mol
- Tm [47]: 62.1 °C
- unfolding enthalpy (van 't Hoff) [47]: 106 kcal/mol
- Tm [48]: 66 °C
- unfolding enthalpy (van 't Hoff) [48]: 125 kcal/mol
- unfolding free energy (pH 4, 10 °C, glycine/HCl 10 mM): 12 kcal/mol
- unfolding free energy (pH 4, 25 °C, glycine-HCl 10 mM): 10 kcal/mol
- Tm [49]: 66.6 °C
- unfolding enthalpy (van 't Hoff) [49]: 112 kcal/mol
